From publication PMC5567289, “Characterization and structural determination of a new anti-MET function-blocking antibody with binding epitope distinct from the ligand binding domain” (Scientific Reports, 2017)

B1: 107_A07 Fab (Fab, V domains shown)
VH: QMQLVQSGAEVKKPGAPVKVSCKVSGYTFTDYYMHWVQQAPGKGLEWMGLVDPEDGETIYAEKFQGRVTITADTSTDTAYMELSSLRSEDTAVYYCATDATTPYWGMMWWGQGTLVTVSS
VL: DIQMIQSPSSLSASVGDRVTITCQASQDISNYLNWYQQKPGRAPKVLIYDASNLETGVPSRFSGSGSGTEFTLTISNLRPDDFATYYCQQGDSFPLTFGGGTKVEIK
notes: Fab heavy chain is chain H of the deposited structure PDB 5LSP; Fab light chain is chain L of the deposited structure PDB 5LSP
B2: 7A2 scFv (scFv, V domains shown)
VH: QMQLVQSGAEVKKPGAPVKVSCKVSGYTFTDYYMHWVQQAPGKGLEWMGLVDPEDGETIYAEKFQGRVTITADTSTDTAYMELSSLRSEDTAVYYCATDATTPYYGMDVWGQGTLVTVSS
VL: DIQMTQSPSSLSASVGDRVTITCQASQDISNYLNWYQQKPGRAPKVLIYDASNLETGVPSRFSGSGSGTEFTLTISNLRPDDFATYYCQQGDSFPLTFGGGTKVEIK
notes: VH of 7A2: as the VH of m1 (PDB 5LSP chain H) except in CDR3, where 7A2 has Y105 instead of W105; VL of 7A2: as the VL of m1 (PDB 5LSP chain L); also called clone 7A2; source: Pichia pastoris, purified (Ni-NTA, gel filtration)
B3: 7A2 Fab (Fab, V domains shown)
VH: QMQLVQSGAEVKKPGAPVKVSCKVSGYTFTDYYMHWVQQAPGKGLEWMGLVDPEDGETIYAEKFQGRVTITADTSTDTAYMELSSLRSEDTAVYYCATDATTPYYGMDVWGQGTLVTVSS
VL: DIQMTQSPSSLSASVGDRVTITCQASQDISNYLNWYQQKPGRAPKVLIYDASNLETGVPSRFSGSGSGTEFTLTISNLRPDDFATYYCQQGDSFPLTFGGGTKVEIK
notes: as the light chain of m1 (PDB 5LSP chain L): the matured clones came from VH CDR3 mutagenesis and VL mutants were not identified; also called Fab 7A2; Fab-formatted 7A2

Legend:
Settings in all cases: both partners purified
[1] = biological target: T1, MET567 (Homo sapiens, UniProt P08581); assay: SEC; 6 µM Fab and 4 µM MET (3:2 molar ratio) co-incubated 140 minutes at room temperature in 25 mM Tris pH 7.4, 150 mM NaCl; Superdex 200 10/300
T1 construct: MET receptor (HGF/SF receptor), recombinant truncation of the ectodomain with the SEMA and CR domains and no Ig domain; The ectodomain is cut by furin into an alpha and a beta chain; written here as one chain; also called soluble fragment of the MET ectodomain comprising the SEMA and cysteine-rich (CR) domain
T1 sequence (P08581 39-564): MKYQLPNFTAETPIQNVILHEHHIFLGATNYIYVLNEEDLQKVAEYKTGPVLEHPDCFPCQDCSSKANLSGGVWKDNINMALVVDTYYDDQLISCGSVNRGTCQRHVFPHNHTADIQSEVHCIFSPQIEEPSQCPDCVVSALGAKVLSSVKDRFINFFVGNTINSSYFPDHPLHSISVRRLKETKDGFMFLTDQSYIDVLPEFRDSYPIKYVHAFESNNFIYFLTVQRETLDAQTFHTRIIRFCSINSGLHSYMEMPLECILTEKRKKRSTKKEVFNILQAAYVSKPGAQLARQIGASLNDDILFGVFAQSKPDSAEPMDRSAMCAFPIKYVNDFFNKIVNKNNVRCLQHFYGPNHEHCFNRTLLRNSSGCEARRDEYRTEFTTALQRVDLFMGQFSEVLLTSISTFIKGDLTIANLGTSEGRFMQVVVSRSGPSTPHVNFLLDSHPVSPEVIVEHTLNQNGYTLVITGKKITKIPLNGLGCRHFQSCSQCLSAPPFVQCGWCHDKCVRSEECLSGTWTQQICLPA

[2] = biological target: T2, MET (Homo sapiens, UniProt P08581); assay: SPR; Biacore; mean of three experiments; 107_A07 Fab purified sequentially on KappaSelect and GammaBind Plus; MET construct and who was immobilised not stated
T2 construct: MET receptor; Further methods are said to stand in the Supplementary Information file
T2 sequence (P08581 25-1390): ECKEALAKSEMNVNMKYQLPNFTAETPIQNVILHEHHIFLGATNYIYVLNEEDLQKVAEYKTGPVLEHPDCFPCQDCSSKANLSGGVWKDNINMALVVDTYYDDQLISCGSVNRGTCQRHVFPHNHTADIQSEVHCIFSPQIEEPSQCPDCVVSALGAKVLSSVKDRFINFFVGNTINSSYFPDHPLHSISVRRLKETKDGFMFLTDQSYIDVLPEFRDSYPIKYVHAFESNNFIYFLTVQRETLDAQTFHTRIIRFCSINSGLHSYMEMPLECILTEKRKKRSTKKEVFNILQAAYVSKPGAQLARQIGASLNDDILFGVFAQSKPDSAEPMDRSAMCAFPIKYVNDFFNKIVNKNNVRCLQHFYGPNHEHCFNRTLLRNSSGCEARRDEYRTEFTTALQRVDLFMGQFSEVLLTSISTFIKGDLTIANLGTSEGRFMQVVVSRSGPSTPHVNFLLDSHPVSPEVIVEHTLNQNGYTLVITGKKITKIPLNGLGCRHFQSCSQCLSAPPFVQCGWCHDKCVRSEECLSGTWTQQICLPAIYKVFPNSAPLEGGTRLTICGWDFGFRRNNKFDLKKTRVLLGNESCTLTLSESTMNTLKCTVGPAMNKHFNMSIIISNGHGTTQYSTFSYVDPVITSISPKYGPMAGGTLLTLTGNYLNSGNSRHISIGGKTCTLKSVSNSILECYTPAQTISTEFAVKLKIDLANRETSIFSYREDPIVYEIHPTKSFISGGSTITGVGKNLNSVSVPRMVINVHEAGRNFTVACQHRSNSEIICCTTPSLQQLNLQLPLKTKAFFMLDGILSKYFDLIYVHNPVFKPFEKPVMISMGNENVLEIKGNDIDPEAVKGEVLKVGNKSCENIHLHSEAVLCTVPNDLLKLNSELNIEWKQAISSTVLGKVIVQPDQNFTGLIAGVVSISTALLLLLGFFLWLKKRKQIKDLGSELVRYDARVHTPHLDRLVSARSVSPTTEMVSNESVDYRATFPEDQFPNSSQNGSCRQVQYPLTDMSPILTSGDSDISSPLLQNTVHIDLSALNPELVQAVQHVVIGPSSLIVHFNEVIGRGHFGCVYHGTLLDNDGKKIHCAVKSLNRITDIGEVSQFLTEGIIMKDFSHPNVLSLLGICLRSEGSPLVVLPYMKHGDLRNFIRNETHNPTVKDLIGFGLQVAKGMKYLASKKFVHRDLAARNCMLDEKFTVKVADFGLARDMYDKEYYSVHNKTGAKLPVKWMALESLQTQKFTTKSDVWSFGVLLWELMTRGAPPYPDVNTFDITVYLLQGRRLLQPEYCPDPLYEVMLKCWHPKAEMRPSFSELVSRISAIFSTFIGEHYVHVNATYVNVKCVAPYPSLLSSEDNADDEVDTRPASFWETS

[3] = biological target: T3, MET928 (UniProt P08581); assay: SPR; CM5 chip coated with MET928; 7A2 scFv (134 nM, 268 nM), NK1 (238 nM, 476 nM) or a mixture (134 nM 7A2 scFv, 238 nM NK1); 60 s injections
T3 construct: MET receptor (HGF/SF receptor), recombinant ectodomain with the SEMA, CR and Ig1-4 domains; The ectodomain is cut by furin into an alpha and a beta chain; written here as one chain; also called MET extracellular domain (MET928); His-tagged MET928; source: recombinant
T3 sequence (P08581 25-932): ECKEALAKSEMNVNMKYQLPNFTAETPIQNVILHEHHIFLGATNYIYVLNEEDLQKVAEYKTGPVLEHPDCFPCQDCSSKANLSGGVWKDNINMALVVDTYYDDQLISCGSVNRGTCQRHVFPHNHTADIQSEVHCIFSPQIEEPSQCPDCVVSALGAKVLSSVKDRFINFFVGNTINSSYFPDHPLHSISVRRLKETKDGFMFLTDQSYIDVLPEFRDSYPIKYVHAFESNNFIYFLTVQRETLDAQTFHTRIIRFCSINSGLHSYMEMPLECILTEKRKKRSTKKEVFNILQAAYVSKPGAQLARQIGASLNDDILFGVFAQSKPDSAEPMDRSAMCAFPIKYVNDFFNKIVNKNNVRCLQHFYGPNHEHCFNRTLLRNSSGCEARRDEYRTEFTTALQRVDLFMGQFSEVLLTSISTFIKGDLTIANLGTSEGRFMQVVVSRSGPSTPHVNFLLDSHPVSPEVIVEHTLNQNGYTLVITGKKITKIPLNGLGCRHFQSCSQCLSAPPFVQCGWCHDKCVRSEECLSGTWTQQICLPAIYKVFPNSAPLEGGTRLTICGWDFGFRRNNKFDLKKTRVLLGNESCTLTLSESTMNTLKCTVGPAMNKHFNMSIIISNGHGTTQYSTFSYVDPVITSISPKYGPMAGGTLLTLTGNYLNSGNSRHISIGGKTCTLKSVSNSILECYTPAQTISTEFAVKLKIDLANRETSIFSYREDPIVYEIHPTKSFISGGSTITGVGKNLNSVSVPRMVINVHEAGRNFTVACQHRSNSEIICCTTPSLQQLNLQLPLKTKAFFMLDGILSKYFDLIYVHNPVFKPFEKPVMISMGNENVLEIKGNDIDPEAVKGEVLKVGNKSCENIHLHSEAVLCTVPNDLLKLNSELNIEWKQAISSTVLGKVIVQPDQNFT

[4] = biological target: T4, MET741 (Homo sapiens, UniProt P08581); assay: SEC; 6 µM Fab and 4 µM MET (3:2 molar ratio) co-incubated 140 minutes at room temperature in 25 mM Tris pH 7.4, 150 mM NaCl; Superdex 200 10/300
T4 construct: MET receptor (HGF/SF receptor), recombinant truncation of the ectodomain with the SEMA, CR and Ig1-2 domains; The ectodomain is cut by furin into an alpha and a beta chain; written here as one chain; also called soluble MET741; his-tagged MET741; source: CHO Lec3.2.8.1 cells, purified (NiNTA, cation exchange MonoS)
T4 sequence (P08581 25-741): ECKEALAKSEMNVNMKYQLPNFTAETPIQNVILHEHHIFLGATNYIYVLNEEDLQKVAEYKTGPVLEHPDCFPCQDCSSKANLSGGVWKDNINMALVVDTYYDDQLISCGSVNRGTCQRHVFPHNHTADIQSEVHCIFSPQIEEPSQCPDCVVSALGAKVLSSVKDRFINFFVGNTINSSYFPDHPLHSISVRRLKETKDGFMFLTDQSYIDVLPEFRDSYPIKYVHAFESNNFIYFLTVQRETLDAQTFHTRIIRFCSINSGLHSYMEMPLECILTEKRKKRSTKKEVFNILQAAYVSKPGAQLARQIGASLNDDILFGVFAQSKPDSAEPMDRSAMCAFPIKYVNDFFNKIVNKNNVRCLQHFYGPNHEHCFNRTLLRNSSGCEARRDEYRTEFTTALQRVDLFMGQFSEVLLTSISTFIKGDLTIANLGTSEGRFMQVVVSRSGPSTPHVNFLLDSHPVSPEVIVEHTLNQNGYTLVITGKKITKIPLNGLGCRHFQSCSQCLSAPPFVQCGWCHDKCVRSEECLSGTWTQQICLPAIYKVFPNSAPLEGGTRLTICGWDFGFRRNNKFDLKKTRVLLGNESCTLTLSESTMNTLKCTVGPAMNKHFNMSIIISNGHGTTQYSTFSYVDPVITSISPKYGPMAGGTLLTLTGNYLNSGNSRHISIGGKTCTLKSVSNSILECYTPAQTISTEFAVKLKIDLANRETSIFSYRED

[5] = biological target: T3, MET928; assay: as above

| Binder | binding result [1] | Kd [2] [nM] | binding result [3] | binding result [4] | binding result [5] |
| --- | --- | --- | --- | --- | --- |
| B1 | no binding (tested: 6 µM Fab, 4 µM MET567) | 3.2 | – | – | – |
| B2 | – | – | binds | – | – |
| B3 | no binding (tested: 6 µM Fab, 4 µM MET567) | – | – | binds | binds |
